# Source: US20110059095A1 (Regeneron, published 2011)
# Where no end group is shown, it is not given here. The star is where a group is joined. Biotin = O=C1N[C@H]2[C@H](CS[C@H]2CCCCC(=O)*)N1
# T1: Peptide B (human PAR-2), N-terminal biotinylated (Human)
# T1 construct: also called Peptide B N-Term
# T1 peptide: Biotin-GGGGSSLIGKVDGTSHVTG
# T2: Peptide A (human PAR-2), unbiotinylated (Human)
# T2 construct: also called Peptide A No Biotin
# T2 peptide: GTNRSSKGRSLIGKVDGT
# T3: Peptide C (human PAR-2), N-terminal biotinylated (Human)
# T3 construct: also called Peptide C N-Term
# T3 peptide: Biotin-GGGGSSLIGKV
# T4: Peptide C (human PAR-2), C-terminal biotinylated (Human)
# T4 construct: also called Peptide C C-Term
# T4 peptide: SLIGKVGGGGS-biotin
# T5: Peptide B (human PAR-2), unbiotinylated (Human)
# T5 construct: also called Peptide B No Biotin
# T5 peptide: SLIGKVDGTSHVTG
# T6: Peptide A (human PAR-2), N-terminal biotinylated (Human, N-terminal biotin via G4S linker)
# T6 construct: also called Peptide A N-Term
# T6 peptide: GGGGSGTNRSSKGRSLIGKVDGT
# T7: Peptide B (human PAR-2), C-terminal biotinylated (Human, not fully specified)
# T7 construct: also called Peptide B C-Term
# T7 peptide: SLIGKVDGTSHVTGGGGGS-biotin
# Columns and labels:
# [1] = molecular target: T1, Peptide B (human PAR-2), N-terminal …; assay: peptide ELISA
# Protocol: (§1) Anti-PAR-2 antibodies were tested for their ability to bind to the PAR-2 peptides. Various PAR-2 Peptides (Table 3) were coated onto 96-well plates at a concentration of 2 μg/ml and incubated overnight followed by blocking in a suitable blocking agent for one hour. […] Purified anti-PAR-2 antibodies were added to the plate coated with PAR-2 peptides to a final concentration ranging from 0.2 to 2.0 μg/ml and incubated for one hour at room temperature. Detection of bound antibodies was determined with Horse-Radish Peroxidase (HRP) conjugated anti-mouse or human IgG (Jackson Immuno Research Lab, West Grove, Pa.) and developed by standard colorimetric response using tetramethylbenzidine (TMB) substrate. Absorbance was read at OD₄₅₀ for 0.1 second.
# [2] = molecular target: T2, Peptide A (human PAR-2), unbiotinylated; assay: peptide ELISA
# Protocol: as §1
# [3] = molecular target: T3, Peptide C (human PAR-2), N-terminal …; assay: peptide ELISA
# Protocol: as §1
# [4] = molecular target: T4, Peptide C (human PAR-2), C-terminal …; assay: peptide ELISA
# Protocol: as §1
# [5] = molecular target: T8, Peptide A (human PAR-2), C-terminal biotinylated (Human, C-terminal biotin via G4S linker); assay: peptide ELISA
# T8 construct: also called Peptide A C-Term
# Protocol: as §1
# [6] = molecular target: T5, Peptide B (human PAR-2), unbiotinylated; assay: peptide ELISA
# Protocol: as §1
# [7] = molecular target: T6, Peptide A (human PAR-2), N-terminal …; assay: peptide ELISA
# Protocol: as §1
# [8] = molecular target: T7, Peptide B (human PAR-2), C-terminal …; assay: peptide ELISA
# Protocol: as §1
# [9] = molecular target: T8, Peptide A (human PAR-2), C-terminal …; assay: SPR, peptide immobilized
# Protocol: (§2) In another series of experiments, equilibrium dissociation constants (KD values) for purified antibody binding to selected biotinylated and unbiotinylated forms of PAR-2 peptides were determined by surface kinetics using a real-time surface plasmon resonance biosensor assay. Neutravidin (Pierce, Rockford, Ill.) was covalently coupled to the surface of a Biacore™ C1 chip or CM5 chip using amine coupling chemistry. Biotinylated (N-Term or C-Term) PAR-2 peptides (Peptides A and B) were immobilized on the surface via the high affinity binding interaction between biotin and the amine coupled Neutravidin.
# (§3) In a first experiment using this format, varying concentrations (ranging from 5 to 100 μg/ml) of purified antibody were injected at a rate of 50 μl/min over a surface coated with immobilized peptide at low-density (<1RU) for 300 seconds. Antibody-peptide binding and dissociation was monitored in real time 25° C.
# [10] = molecular target: T7, Peptide B (human PAR-2), C-terminal …; assay: SPR, peptide immobilized
# Protocol: as §2, §3
# [11] = molecular target: T9, full length human PAR-2 (human, UniProt P55085 26-397); assay: cell-based or functional assay
# T9 sequence (P55085 26-397 G138A limits assumed): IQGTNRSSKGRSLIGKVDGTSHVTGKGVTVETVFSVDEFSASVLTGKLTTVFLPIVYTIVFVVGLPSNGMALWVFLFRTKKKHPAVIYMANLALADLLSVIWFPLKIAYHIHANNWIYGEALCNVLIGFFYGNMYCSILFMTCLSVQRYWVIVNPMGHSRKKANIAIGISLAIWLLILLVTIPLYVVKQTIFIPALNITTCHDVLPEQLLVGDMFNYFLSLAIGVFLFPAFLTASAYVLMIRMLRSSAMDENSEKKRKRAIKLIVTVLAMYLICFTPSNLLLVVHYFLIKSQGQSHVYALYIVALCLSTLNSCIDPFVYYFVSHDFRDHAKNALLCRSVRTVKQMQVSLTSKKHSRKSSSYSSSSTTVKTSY
# [12] = molecular target: T9, full length human PAR-2; assay: cell ELISA, 10 ug/ml antibody
# Text: HEK293 cells were transfected with an NF-κB-luciferase-IRES-eGFP reporter plasmid. […] A clonal cell line, named D9, having low background levels of luciferase activity and high levels of eGFP when induced with IL-1β was made by a series of successive sorts of cell populations using flow cytometry. The 293/D9 cell line was then separately transfected with human PAR-2 or mouse PAR-2 to create the stable cell lines 293/D9/h PAR-2rec and 293/D9/m PAR-2rec, respectively.
# Binding of anti-PAR-2 antibodies to 293/D9/hPAR-2rec cells was determined by ELISA. 293/D9 and 293/D9/hPAR-2rec cells were plated at a density of 5×10⁴ cells/well in media and incubated overnight at 37° C. and 5% CO₂. Purified antibody was added to the cells to a final concentration of 10 μg/ml and incubated at room temperature for one hour. Cells were then fixed and washed before detection of bound antibodies with HRP conjugated anti-mouse IgG and developed by standard colorimetric response using TMB substrate. Absorbance was read at OD₄₅₀ for 0.1 second.
# [13] = molecular target: T2, Peptide A (human PAR-2), unbiotinylated; assay: SPR, antibody captured
# Protocol: (§4) Equilibrium dissociation constants (KD values) for antigen binding to selected purified PAR-2 antibodies were determined by surface kinetics using a real-time surface plasmon resonance biosensor assay. Antibody was captured on either a rabbit anti-mouse IgG polyclonal antibody (GE Healthcare, Piscataway, N.J.) surface or a goat anti-human IgG polyclonal antibody (Jackson Immuno Research Lab, West Grove, Pa.) surface created through direct amine chemical coupling to a BIACORE™ CM5 sensor chip to form a captured antibody surface. […] Antigen-antibody binding and dissociation were monitored in real time at room temperature. Kinetic analysis was performed to calculate KD and half-life of antigen/antibody complex dissociation (Table 10). For those antibodies where no T_{1/2} value is shown, steady state analysis was used to calculate the KD value. NB: no binding observed under current experimental conditions. ND: not determined.
# [14] = molecular target: T5, Peptide B (human PAR-2), unbiotinylated; assay: SPR, antibody captured
# Protocol: as §4
Binder,OD450 [1] [od],OD450 [2] [od],OD450 [3] [od],OD450 [4] [od],OD450 [5] [od],OD450 [6] [od],OD450 [7] [od],OD450 [8] [od],Kd [9] [nM],T1/2 [9] [min],Kd [10] [nM],T1/2 [10] [min],"IC50, NF-kB-luciferase, 10 nM Human Trypsin 1 [11] [nM]","IC50, NF-kB-luciferase, 10 nM Trypsin [11] [nM]","IC50, NF-kB-luciferase, 250 nM Trypsin [11] [nM]",A450 ratio (293/D9/hPAR-2rec to 293/D9 cells) [12],Kd [13] [nM],T1/2 [13] [min],Kd [14] [nM],T1/2 [14] [min],further results
"H2M588N (antibody, V domains shown, chimeric: human variable, mouse constant domains) VH: EVQLLESGGGLVQPGGSLRLSCAASGFTFSSYAMTWVRQAPGKGLYWVSAISGGRGSAYYADSVKGRFTISRDNSKNTLYLQMNSLRAEDTAVYYCAKEGDSGYDLAYWGRGTLVTVSS VL: DIQMTQSPSSLSASVGDRVTITCRARQGISNNLAWLQQKPGKAPKSLIYAASSLQSGIPSKFSGSGSGTYFTLTISSLQPEDFATYYCQQYKSSPLTFGGGTKVEIK",1 to 4,1 to 4,0 to 0.09,0 to 0.09,1 to 4,1 to 4,1 to 4,1 to 4,0.826,169,1.49,140,165,10.4,2.3,2.5,4.47,60.8,61.7,7.7,"IC50, NF-kB-luciferase, 20 nM Trypsin [11]: 26.8 nM; IC50, NF-kB-luciferase, 30 nM Trypsin [11]: 33 nM; IC50, NF-kB-luciferase, 75 nM Trypsin [11]: 5.7 nM; IC50, NF-kB-luciferase, 200 nM Factor Xa [11]: 45.3 nM; IC50, NF-kB-luciferase, 750 nM Lung Tryptase [11]: 1 nM"
"H2M618N (antibody, V domains shown, chimeric: human variable, mouse constant domains) VH: EVQLLESGGGLVQPGGSLRLSCAASGFTFRSYTMTWVRQAPGKGLDWVSGITDSGAGTYYGDSVKGRFTISRDNSKNTLYLQMNSLRAEDTAVYYCVKEGDSGYDLDYWGQGTLVTVSS VL: DIQMTQSPSSLSASVGDRVTITCRASQGISTYLAWLQQKPGKAPKSLIYATSSLQSGVPSKFSGSRSGTDFTLTISSLQPEDFATYYCQQYKSSPLTFGGGTKVEIK",1 to 4,1 to 4,0 to 0.09,0 to 0.09,1 to 4,1 to 4,1 to 4,1 to 4,1.8,79,2.32,60,154,12.4,6.6,2.44,9.62,6.7,126,3.5,"IC50, NF-kB-luciferase, 20 nM Trypsin [11]: 70 nM; IC50, NF-kB-luciferase, 75 nM Trypsin [11]: 7.8 nM; IC50, NF-kB-luciferase, 200 nM Factor Xa [11]: 54.2 nM; IC50, NF-kB-luciferase, 750 nM Lung Tryptase [11]: 7 nM"
"H2M589N (antibody, V domains shown, chimeric: human variable, mouse constant domains) VH: EVQLLESGGGLVQPGGSLRLSCATSGFTFSRYTMTWVRQAPGKGLFWVSGIGGSGGRAYYADSVKGRFTLSRDNSKNTLYLQMNSLRAEDTAVYYCAKEGDSGYDLDYWGRGTLVTVSS VL: DIQMTQYPSSLSASVGDRVTITCRARQGISNYLAWLQQKPGKAPKSLIYAASSLQRGVPSKFSGSGSGTDFTLTISSLQPEDSATYYCQQYKISPLTFGGGTKVEIK",1 to 4,1 to 4,0 to 0.09,0 to 0.09,1 to 4,1 to 4,1 to 4,1 to 4,,,,,,,6.3,2.03,3.75,51.3,128,7.3,"IC50, NF-kB-luciferase, 75 nM Trypsin [11]: 3.7 nM"
"H2M591N (antibody, V domains shown, chimeric: human variable, mouse constant domains) VH: EVQLLESGGGLVQPGGSLRLSCATSGFTFSRYTMTWVRQAPGKGLFWVSGIGGSGGRAYYADSVKGRFTLSRDNSKNTLYLQMNSLRAEDTAVYYCAKEGDSGYDLDYWGRGTLVTVSS VL: DIQMTQYPSSLSASVGDRVTITCRARQGISNYLAWLQQKPGKAPKSLIYAASSLQRGVPSKFSGSGSGTDFTLTISSLQPEDSATYYCQQYKISPLTFGGGTKVEIK",1 to 4,1 to 4,0 to 0.09,0 to 0.09,1 to 4,1 to 4,1 to 4,1 to 4,0.545,209,1.82,94,150,24.2,4.5,2.25,4.22,42.7,151,8.1,"IC50, NF-kB-luciferase, 20 nM Trypsin [11]: 122 nM; IC50, NF-kB-luciferase, 200 nM Factor Xa [11]: 51.5 nM; IC50, NF-kB-luciferase, 750 nM Lung Tryptase [11]: 88.1 nM"
